Assay results published in article PMC4975651.

Experiments:
Assay in all cases: ITC
[1] = target: H3K4me0 peptide (ITC, Figures 5D and 5E) (UniProt P68431)
H3K4me0 (1-25aa) peptide = H3K4me0 (1-25aa) peptide (UniProt P68431)
H3K4me0K14ac peptide = target: H3K4me0K14ac peptide

| Kd [1] [µM] | fold increase of binding activity against ZMYND8-PBP (H3K4me0 (1-25aa) peptide) [fold] | Kd (H3K4me0K14ac peptide) [nM] | Substance |
| --- | --- | --- | --- |
| 15 |  |  | ZMYND8-PB (ITC) (domain or fragment) |
|  | 11 |  | ZMYND8-PBP F109D (domain or fragment) |
| 7.2 |  | 1000 | ZMYND8-PBP (93-426aa) (domain or fragment) |
